B1: KLHL13 (parent)
chain: TGEFLKLPFERLAFVLSSNSLKHC
B2: PKD2L1 (parent)
chain: SGPEAARAGGWVSGEEFYMLTRRV

Variants of: B1
Assay: protein stability index of a GFP-peptide fusion (GPS, HEK-293T) (PSI 1-6); higher = more stable
Conditions: c terminus: a fixed tail appended
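Note: lentivirally expressed fusions sorted by FACS into six bins by GFP to DsRed ratio, PSI derived from sequencing read proportions per bin multiplied by bin number.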

Protein stability index of substitutions, site by site:
T1: R 3.17 | H 3.25 | Q 2.82 | L 3.16 | E 2.1

Variants of: B2
Assay: as above
Conditions: c terminus: a fixed tail appended

Protein stability index of substitutions, site by site:
L20: H 2.69 | F 1.81 | E 3.64 | P 3.94 | N 3.79 | R 3.79 | C 2.97 | K 3.46 | G 4.08 | Q 3.1 | D 4.19 | Y 2.74 | T 2.81 | A 3.16 | V 2.25 | I 2.01 | W 1.73 | M 2.93 | S 3.61
V12: H 1.84 | S 3.38 | T 2.31 | L 2.6 | M 2.25 | P 2.31 | A 2.51 | Q 2.49 | N 2.73 | K 2.47 | F 2.12 | G 3.15 | I 2.2 | Y 1.96 | R 2.86 | E 3.52 | W 2.28 | D 2.91 | C 2.46
Y18: S 3.4 | V 2.89 | W 2.69 | R 3.55 | C 3.05 | N 3.69 | I 2.32 | L 2.56 | M 2.84 | T 3.52 | G 3.44 | A 3.38 | Q 3.03 | P 3.21 | D 3.94 | E 3.77 | K 4.08 | H 3.46 | F 2.23
S13: L 1.77 | T 2.13 | N 2.26 | D 3.01 | C 2.08 | E 3.15 | H 2.74 | K 2.05 | A 1.96 | Y 2.07 | R 2.84 | Q 3.19 | P 2.78 | F 2.44 | G 2.19 | V 2.03 | W 2.17 | I 1.47 | M 2.14
G14: I 2.63 | Q 2.57 | V 2.27 | F 1.76 | K 2.52 | W 2.19 | D 3.91 | R 3.17 | T 3 | A 3.24 | H 2.4 | L 2.04 | E 3.18 | M 2.46 | P 3.09 | Y 2.08 | N 3.21 | S 2.6
E16: T 2.26 | R 1.93 | W 2.42 | C 1.56 | H 1.64 | S 2.73 | F 2.75 | Y 2.02 | Q 2.25 | M 2.7 | G 2.6 | V 1.64 | A 1.92 | L 1.76 | K 2.5 | P 1.78 | D 2.29 | I 2.23 | N 2.42
G10: L 2.17 | N 2.55 | D 3.01 | M 2.31 | T 2.73 | K 2.64 | R 2.56 | V 1.72 | H 3.21 | Q 2.91 | P 2.37 | A 2.22 | E 3.31 | C 1.82 | W 2.53 | Y 1.79 | I 3.36 | S 2.32
R7: Q 3.04 | L 2.58 | K 2.72 | G 2.24 | V 2.56 | P 2.68 | N 2.44 | F 2.9 | W 2.6 | S 2.42 | I 2.11 | M 2.64 | Y 2.31 | T 2.44
F17: L 2.85 | E 4.26 | T 3.37 | C 3.03 | M 3.27 | D 4.59 | R 3.68 | K 3.39 | S 3.58 | W 2.14 | H 3.33 | N 3.89 | P 3.89 | I 2.67 | V 2.5 | G 4.13 | Y 2.79
